{"source": "IntAct's records for PubMed 19345194", "parents": {"B1": {"name": "Homer protein homolog 1 (Rattus norvegicus (Rat)), Q9Z214-2 (parent)", "chain": "MGEQPIFSTRAHVFQIDPNTKKNWVPTSKHAVTVSYFYDSTRNVYRIISLDGSKAIINSTITPNMTFTKTSQKFGQWADSRANTVYGLGFSSEHHLSKFAEKFQEFKEAARLAKEKSQEKMELTSTPSQESAGGDLQSPLTPESINGTDDERTPDVTQNSEPRAEPAQNALPFSHSSAISKHWEAELATLKGNNAKLTAALLESTANVKQWKQQLAAYQEEAERLHKRVTELECVSSQANAVHSHKTELSQTVQELEETLKVKEEEIERLKQEIDNARELQEQRDSLTQKLQEVEIRNKDLEGQLSELEQRLEKSQSEQDAFRSNLKTLLEILDGKIFELTELRDNLAKLLECS"}}, "data": [{"variants_of": "B1", "settings": "with shan1_rat Shank1, Q9WV48", "values": [{"variant": "MGEQPIFSTRAHVFQIDPNTKKNAVPTSKHAVTVSYFYDSTRNVYRIISLDGSKAIINSTITPNMTFTKTSQKFGQWADSRANTVYGLGFSSEHHLSKFAEKFQEFKEAARLAKEKSQEKMELTSTPSQESAGGDLQSPLTPESINGTDDERTPDVTQNSEPRAEPAQNALPFSHSSAISKHWEAELATLKGNNAKLTAALLESTANVKQWKQQLAAYQEEAERLHKRVTELECVSSQANAVHSHKTELSQTVQELEETLKVKEEEIERLKQEIDNARELQEQRDSLTQKLQEVEIRNKDLEGQLSELEQRLEKSQSEQDAFRSNLKTLLEILDGKIFELTELRDNLAKLLECS", "note": "[W24A]", "effect of a mutation on the interaction": "decreasing interaction"}]}]}
